Laboratory results: paper PMC8477192, “An ionic lock and a hydrophobic zipper mediate the coupling between an insect pheromone receptor BmOR3 and downstream effectors” (The Journal of Biological Chemistry, 2021)
One block for each substance: values may come before it.

Legend:
Rluc-BmArr = test: intermolecular BRET; details: read off a plot
Rluc-BmOrco = test: intermolecular BRET; details: bombykal-induced, read off a plot
YFP-BmOrco (Bombyx mori) [1] = test: FRET or BRET; intermolecular BRET in living HEK293 cells after bombykal for 5 min (dose response or ΔBRET); Rluc-BmOR3 with YFP-BmOrco, or Rluc-BmOrco with YFP-BmOR3; pretreatment with 100 ng/ml pertussis toxin without significant effect
YFP-BmOrco (Bombyx mori) [2] = test: FRET or BRET; saturation BRET in living HEK293 cells, no agonist; fixed Rluc donor, increasing YFP acceptor plasmid; coelenterazine h 5 μM; Lyn-YFP as negative control
YFP-BmOR3 [3] = target: T1, YFP-BmOR3 (Bombyx mori, UniProt Q5FBE0 1-439); test: FRET or BRET; arrestin recruitment BRET in living HEK293 cells; YFP-BmOR3 (WT or mutant) with Rluc-fused arrestin; bombykal for 10 min; pertussis toxin without effect; enhanced by BmOrco coexpression
T1 construct: BmOR3, pheromone (bombykal) receptor of Bombyx mori; also called N-terminal YFP-tagged BmOR3; YFP-WT-BmOR3; source: HEK293, transfected, in living cells; not shown: YFP, N-terminal, kept
T1 sequence (looked up): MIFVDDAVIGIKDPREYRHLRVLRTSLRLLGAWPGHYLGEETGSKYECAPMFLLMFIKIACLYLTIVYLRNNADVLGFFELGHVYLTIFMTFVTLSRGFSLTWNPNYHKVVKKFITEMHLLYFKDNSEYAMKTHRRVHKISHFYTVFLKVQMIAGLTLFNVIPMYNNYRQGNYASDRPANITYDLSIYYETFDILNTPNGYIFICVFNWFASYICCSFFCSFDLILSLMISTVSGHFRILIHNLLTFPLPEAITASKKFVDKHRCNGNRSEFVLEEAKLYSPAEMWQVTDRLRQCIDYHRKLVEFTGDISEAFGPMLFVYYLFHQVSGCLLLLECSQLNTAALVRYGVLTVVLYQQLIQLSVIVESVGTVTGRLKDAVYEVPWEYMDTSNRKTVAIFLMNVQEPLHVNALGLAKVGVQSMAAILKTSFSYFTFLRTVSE

YFP-BmOR3 [4] = target: T1, YFP-BmOR3; test: intermolecular BRET; details: bombykal-induced, read off a plot
[5] = target: Rluc-BmOrco (Bombyx mori)
[6] = HEK293 cells, parent: est. 0.053
[7] = HEK293 cells, bombykal, parent: est. 0.612
[8] = HEK293 cells, vehicle, parent: est. 0.592
[9] = HEK293 cells, parent: est. 0.027

- response (Rluc-BmOrco; [6]): 0.041 ΔBRET
Substance: YFP-BmOR3 (from UniProt Q5FBE0) R391E; K392E

- BRET50 (receptor expression ratio) (receptor expression ratio) (YFP-BmOrco (Bombyx mori) [2]): 1
Substance: Rluc-BmOR3 (receptor)
- EC50 of bombykal for the BRET increase (YFP-BmOrco (Bombyx mori) [1]): 36 nM

- response (Rluc-BmArr; [7]): 0.605 BRET Ratio
- response (Rluc-BmArr; [8]): 0.595 BRET Ratio
Substance: YFP-BmOR3 (from UniProt Q5FBE0) W33A

- response (Rluc-BmOrco; [6]): 0.003 ΔBRET
- response (Rluc-BmOrco; parent: est. 0.015): 0.003 ΔBRET
Substance: YFP-BmOR3 (from UniProt Q5FBE0) F428A; F433A

- response (Rluc-BmArr; [7]): 0.604 BRET Ratio
- response (Rluc-BmArr; [8]): 0.592 BRET Ratio
Substance: YFP-BmOR3 (from UniProt Q5FBE0) W209A

- response (YFP-BmOR3 [4]; [9]): 0.005 ΔBRET
- response (YFP-BmOR3 [4]; parent: est. 0.038): 0 ΔBRET
Substance: Rluc-BmOrco K437E

- response (Rluc-BmArr; [7]): 0.603 BRET Ratio
- response (Rluc-BmArr; [8]): 0.59 BRET Ratio
Substance: YFP-BmOR3 (from UniProt Q5FBE0) W383A

The next lines start with the substance.

Substance: YFP-BmOR3 (from UniProt Q5FBE0) S26A
- response (Rluc-BmArr; bombykal-stimulated, parent: est. 0.012): 0.008 ΔBRET

Substance: Rluc-BmArr (natural protein)
- EC50 of bombykal for the BRET increase (quantity not given) (YFP-BmOR3 [3]): 90 nM

Substance: YFP-BmOR3 (from UniProt Q5FBE0 1-439) (receptor)
- bombykal (1 μM)-stimulated Ca2+ response (CalfluxVTN BRET sensor) in HEK293 cells coexpressing BmOR3 and BmOrco, relative to angiotensin II through AT1R (% of the AT1R response) [5]: 70

Substance: YFP-BmOR3 (from UniProt Q5FBE0) W103A
- response (Rluc-BmArr; [7]): 0.605 BRET Ratio
- response (Rluc-BmArr; [8]): 0.594 BRET Ratio

Substance: YFP-BmOR3 (from UniProt Q5FBE0) W286A
- response (Rluc-BmArr; [7]): 0.605 BRET Ratio
- response (Rluc-BmArr; [8]): 0.593 BRET Ratio

Substance: Rluc-BmOrco L451A; L458A
- response (YFP-BmOR3 [4]; [9]): 0.029 ΔBRET
